Assay type in all cases: biochemical, Alcaligenes faecalis
Substrate in data set [1]: CC1(C)S[C@@H]2[C@H](NC(=O)COc3ccccc3)C(=O)N2[C@H]1C(=O)O
Description: Deacylation kinetics and phenylacetic acid product inhibition, mutant A:M143V. Particulars: other: A:M143V; 40 mM NaH2PO4, pH 7.5, 37° C.; pH 7.5; 37.0 °C. The protocol:
(§1) In order to determine enzymatic activity the acylases were incubated with substrate at room temperature in buffered solution. In case β-lactamase impurity was expected to be present in the enzyme preparations, 1.0 mM -lactamase inhibitor 6-bromo-penicillanic acid was added to the assay. The reactions were stopped by adding an excess PMSF. For some mutants which were less sensitive to PMSF inhibition, the reactions were stopped by adding 0.5 M HCl or 0.5 M acetic acid until the pH was between 3 and 4. When reactions were subsequently analysed by HPLC, the reactions were stopped by dilution with the correponding elution solvent (see table 1). In addition substrates were incubated under assay conditions in absence of enzyme. If necessary enzyme assays were corrected for non-enzymatic hydrolysis
(§2) The composition of the reaction mixtures was determined by high-performanceliquid chromatography (HPLC)(table 1). Concentrations were determined by using standards of known concentration.
(§3) In a continuous assay Penicillin G acylase was assayed spectro-fotometrically with the chromogenic substrate NIPAB [6-nitro-3-phenylacetamido-benzoic acid]. The liberation of 3-amino-6-nitrobenzoic acid was monitored by measuring the extinction at 405 nm in a Kontron 610 kinetic spectrofotometer. […] Initial rate measurements were performed with varying concentration of NIPAB. […]
(§4) Initial rate measurements were performed with excess substrate over the enzyme. Catalytic parameters were derived from least-squares fitting of the measured initial rates plotted for various substrate concentrations according to the Michaelis-Menten equation.
(§5) The complete conversion of NIPAB was followed as a funtion of time at 20, 50 and 100 μM NIPAB by following the increase in absorbtion at 405 nm. Products of this conversion are phenylacetic acid and 3-amino-6-nitrobenzoic acid. […] The progress curves of the deacylation of NIPAB could be fitted very well when product inhibition by phenylacetic acid was taken into account. The dissociation constants (usually referred to as inhibition constant Ki) for phenylacetic acid which could be derived from the progress curves is shown in table 11. For these mutants the yield of the conversion in a fixed time span is higher than for wild type. Alternatively, in order to obtain a certain yield a shorter conversion time is needed for the mutants.

Substrate in data set [2]: CC1(C)S[C@@H]2[C@H](NC(=O)Cc3ccccc3)C(=O)N2[C@H]1C(=O)O
The description is as above. As to conditions: other: A:M143V; 40 mM NaH2PO4, pH 7.5, 37° C.; pH 7.5; 37.0 °C. The method, then: as §1, §2, §3, §4, §5

Substrate in data set [3]: CC1(C)S[C@@H]2[C@H](NC(=O)[C@H](N)c3ccc(O)cc3)C(=O)N2[C@H]1C(=O)O
Described as above. Particulars: other: A:M143V; 20 mM NaH2PO4, pH 7.0, 37° C.; pH 7.0; 37.0 °C. The method, then:
as §1, §2, §3, §4, §5

Substrate in data set [4]: CC1(C)S[C@@H]2[C@H](NC(=O)[C@H](N)c3ccccc3)C(=O)N2[C@H]1C(=O)O
Described as above. Particulars: other: A:M143V; 20 mM NaH2PO4, pH 7.0, 37° C.; pH 7.0; 37.0 °C. The protocol: as §1, §2, §3, §4, §5

Substrate in data set [5]: CC1=C(C(=O)O)N2C(=O)[C@@H](NC(=O)Cc3ccccc3)[C@H]2SC1
The description is as above. As to conditions: other: A:M143V; 20 mM NaH2PO4, pH 7.5, 37° C.; pH 7.5; 37.0 °C. The protocol:
as §1, §2, §3, §4, §5

Substrate in data set [6]: NC(=O)[C@H](N)c1ccccc1
The description is as above. Particulars: other: A:M143V; 20 mM NaH2PO4, pH 7.0, 37° C.; pH 7.0; 37.0 °C. The method, then:
as §1, §2, §3, §4, §5

Substrate in data set [7]: O=C(Cc1ccccc1)Nc1ccc([N+](=O)[O-])c(C(=O)O)c1
The description is as above. Particulars: other: A:M143V; 0.1M NaH2PO4, pH 7.5, 25° C.; pH 7.5; 25.0 °C. The method, then:
as §1, §2, §3, §4, §5

Substrate in data set [8]: CC1(C)S[C@@H]2[C@H](NC(=O)COc3ccccc3)C(=O)N2[C@H]1C(=O)O
The data set is described as follows: Deacylation kinetics, mutant A:F147Y. Particulars: other: A:F147Y; 40 mM NaH2PO4, pH 7.5, 37° C.; pH 7.5; 37.0 °C. The protocol:
as §1, with “In” for “In order to determine enzymatic activity the acylases were incubated with substrate at room temperature in buffered solution. In”
as §2
(§6) In a continuous assay Penicillin G acylase was assayed spectro-fotometrically with the chromogenic substrate NIPAB [6-nitro-3-phenylacetamido-benzoic acid]. The liberation of 3-amino-6-nitrobenzoic acid was monitored by measuring the extinction at 405 nm in a Kontron 610 kinetic spectrofotometer. […] Initial rate measurements were performed with varying concentration of NIPAB.
(§7) The kinetics of enzymatic hydrolysis of PenG, PenV, CefG were also studied by alkaline titration (0, OlM KOH), using a Radiometer pH-stat. All experiments were carried out in a buffer free medium.
as §4

Substrate in data set [9]: CC1(C)S[C@@H]2[C@H](NC(=O)Cc3ccccc3)C(=O)N2[C@H]1C(=O)O
Description: Deacylation kinetics, mutant A:F147Y. Particulars: other: A:F147Y; 40 mM NaH2PO4, pH 7.5, 37° C.; pH 7.5; 37.0 °C. The protocol:
as §1, with “In” for “In order to determine enzymatic activity the acylases were incubated with substrate at room temperature in buffered solution. In”
as §2, §6, §7, §4

Substrate in data set [10]: CC1(C)S[C@@H]2[C@H](NC(=O)[C@H](N)c3ccc(O)cc3)C(=O)N2[C@H]1C(=O)O
Description: Deacylation kinetics, mutant A:F147Y. As to conditions: other: A:F147Y; 20 mM NaH2PO4, pH 7.0, 37° C.; pH 7.0; 37.0 °C. The protocol:
as §1, with “In” for “In order to determine enzymatic activity the acylases were incubated with substrate at room temperature in buffered solution. In”
as §2, §6, §7, §4

Substrate in data set [11]: CC1(C)S[C@@H]2[C@H](NC(=O)[C@H](N)c3ccccc3)C(=O)N2[C@H]1C(=O)O
Description: Deacylation kinetics, mutant A:F147Y. Particulars: other: A:F147Y; 20 mM NaH2PO4, pH 7.0, 37° C.; pH 7.0; 37.0 °C. The method, then: as §1, with “In” for “In order to determine enzymatic activity the acylases were incubated with substrate at room temperature in buffered solution. In”
as §2, §6, §7, §4

Substrate in data set [12]: CC1=C(C(=O)O)N2C(=O)[C@@H](NC(=O)Cc3ccccc3)[C@H]2SC1
Description: Deacylation kinetics, mutant A:F147Y. As to conditions: other: A:F147Y; 20 mM NaH2PO4, pH 7.5, 37° C.; pH 7.5; 37.0 °C. The protocol: as §1, with “In” for “In order to determine enzymatic activity the acylases were incubated with substrate at room temperature in buffered solution. In”
as §2, §6, §7, §4

Substrate in data set [13]: NC(=O)[C@H](N)c1ccccc1
Description: Deacylation kinetics, mutant A:F147Y. Particulars: other: A:F147Y; 20 mM NaH2PO4, pH 7.0, 37° C.; pH 7.0; 37.0 °C. The protocol: as §1, with “In” for “In order to determine enzymatic activity the acylases were incubated with substrate at room temperature in buffered solution. In”
as §2, §6, §7, §4

Substrate in data set [14]: O=C(Cc1ccccc1)Nc1ccc([N+](=O)[O-])c(C(=O)O)c1
The data set is described as follows: Deacylation kinetics, mutant A:F147Y. As to conditions: other: A:F147Y; 0.1M NaH2PO4, pH 7.5, 25° C.; pH 7.5; 25.0 °C. The protocol:
as §1, with “In” for “In order to determine enzymatic activity the acylases were incubated with substrate at room temperature in buffered solution. In”
as §2, §6, §7, §4

B1: Alcaligenes faecalis Penicillin G acylase mutant A:M143V (Alcaligenes faecalis; M169V) (protein)
chain 1: QVQSVEVMRDSYGVPHVFADSHYGLYYGYGYAVAQDRLFQMDMARRSFVGTTAAVLGPGEQDAYVKYDMQVRQNFTPASIQRQIAALSKDERDIFRGYADGYNAYLEQVRRRPELLPKEYVDFDFQPEPLTDFDVVMIWVGSVANRFSDTNLEVTALAMRQSLEKQHGPERGRALFDELLWINDTTAPTTVPAPAAEHKPQA
chain 2: SNLWSTRPERVQEGSTVLINGPQFGWYNPAYTYGIGLHGAGFDVVGNTPFAYPIVLFGTNSEIAWGATAGPQDVVDIYQEKLNPSRADQYWFNNAWRTMEQRKERIQVRGQADREMTIWRTVHGPVMQFDYDQGAAYSKKRSWDGYEVQSLLAWLNVAKARNWTEFLDQASKMAISINWYYADKHGNIGYVSPAFLPQRPADQDIRVPAKGDGSMEWLGIKSFDAIPKAYNPPQGYLVNWNNKPAPDKTNTDTYYWTYGDRMNELVSQYQQKDLFSVQEIWEFNQKASYSDVNWRYFRPHLEKLAQQLPADDSSKAALTMLLAWDGMEQDQGGQNAGPARVLFKTWLEEMYKQVLMPVVPESHRAMYSQTGFATQQGPNPGSINLSMGTKVLLRALVLEAHPDPKRVNVFGERSSQEIMHTALQNAQARLSQEQGAQMARWTMPTSVHRFSDKNFTGTPQTMPGNTFAFTGYQNRGTENNRVVFDAKGVEFCDAMPPGQSGFTDRNGVRSPHYEDQLKLYENFECKTMDVTHADIRRNAQSSTMLLIQPQP
notes: alpha 202 aa, beta 551 aa; recombinant, E. coli host
What is called Km is the substrate concentration at which the rate is half of its maximum. For B1, the Km in data set [1] came to 31 µM; in data set [2], 6 µM; in data set [3] it was 21000 µM; in data set [4], 1500 µM; in [5], 7 µM; in data set [6] it was 35000 µM. For the same protein, the Michaelis constant (Km) in data set [7] amounted to 17 µM. Also, the Vmax in data set [1] is recorded as 10.3 U/mg; in data set [2] it was 40.5 U/mg; in [3] it was “.2 U/mg”; in data set [4] it was 23.0 U/mg; in data set [5] it was 56.4 U/mg; in [6], 22.2 U/mg. Besides, in [7], the Vmax is reported as 35.7 U/mg.

B2: Alcaligenes faecalis Penicillin G acylase mutant A:F147Y (Alcaligenes faecalis; F173Y) (protein)
chain 1: QVQSVEVMRDSYGVPHVFADSHYGLYYGYGYAVAQDRLFQMDMARRSFVGTTAAVLGPGEQDAYVKYDMQVRQNFTPASIQRQIAALSKDERDIFRGYADGYNAYLEQVRRRPELLPKEYVDFDFQPEPLTDFDVVMIWVGSMANRYSDTNLEVTALAMRQSLEKQHGPERGRALFDELLWINDTTAPTTVPAPAAEHKPQA
chain 2: SNLWSTRPERVQEGSTVLINGPQFGWYNPAYTYGIGLHGAGFDVVGNTPFAYPIVLFGTNSEIAWGATAGPQDVVDIYQEKLNPSRADQYWFNNAWRTMEQRKERIQVRGQADREMTIWRTVHGPVMQFDYDQGAAYSKKRSWDGYEVQSLLAWLNVAKARNWTEFLDQASKMAISINWYYADKHGNIGYVSPAFLPQRPADQDIRVPAKGDGSMEWLGIKSFDAIPKAYNPPQGYLVNWNNKPAPDKTNTDTYYWTYGDRMNELVSQYQQKDLFSVQEIWEFNQKASYSDVNWRYFRPHLEKLAQQLPADDSSKAALTMLLAWDGMEQDQGGQNAGPARVLFKTWLEEMYKQVLMPVVPESHRAMYSQTGFATQQGPNPGSINLSMGTKVLLRALVLEAHPDPKRVNVFGERSSQEIMHTALQNAQARLSQEQGAQMARWTMPTSVHRFSDKNFTGTPQTMPGNTFAFTGYQNRGTENNRVVFDAKGVEFCDAMPPGQSGFTDRNGVRSPHYEDQLKLYENFECKTMDVTHADIRRNAQSSTMLLIQPQP
notes: as for B1
Turning to B2, the Michaelis-Menten constant (Km) in data set [8] was found to be 51 µM; in data set [9] it was 4 µM; in data set [10], 19000 µM; in data set [11], 2600 µM; in data set [12], 6 µM; in data set [13], 1700 µM. Also, in [14], the Michaelis constant (Km) was 5 µM. For the same protein, the Vmax in data set [8] is given as 0.8 U/mg; in data set [9], 5.9 U/mg; in data set [10] it was 0.1 U/mg; in data set [11] it was 13.6 U/mg; in data set [12] it was 4.0 U/mg; in [13] it was 32.7 U/mg. Also, the Vmax in data set [14] was 18.0 U/mg.

These data come from patent US6033823A, “Mutated penicillin G acylase genes” (priority 1994, dated 2000).
